Source: US20210024604A1, “NOVEL INSULIN DERIVATIVES” (Novo Nordisk A/S, priority 2009, published 2021)

Tests used:
[1] = target: T1, human serum albumin (Homo sapiens, UniProt P02768); assay: Elution from immobilized human serum albumin column; shift in retention time with glucose in eluent; type: binding; settings: retention time with no glucose vs 50 mM glucose in eluent, HSA column
T1 construct: purchased Chromtech Inc HSA 50.3 column
Procedure: The glucose sensitivity of insulin albumin binding can be determined by tuning glucose levels in the elution buffer and determine the shift in retention time as a function of the glucose concentration, table 1 below.
T 37° C., flow 0.7 mL/min, 20 uL of 10 uM samples, UV monitor 220 nm.
Compounds marked with an asterix were eluted with a gradient to 70% buffer B.

[2] = rat, in vivo, iv
[3] = pH 7.4, 37° C., gradient to 50% buffer B

Substance	Δ Rt [1, 3] [min]	Δ Rt ([1]; marked *: eluted with a gradient to 70% buffer B) [min]	elimination compared with insulin of example 24 [2]
B29N^ε-16-(2,3-Difluoro-4-boronobenzoylamino)hexadecanoyl desB30 Human Insulin [Example 6]	2.8		
A22M-15-(3,5-Diboronobenzoylamino)pentadecanoyl B29M-15-(3,5-diboronobenzoylamino)pentadecandioyl A22K desB30 Human Insulin [Example 16]		0.7	
B29N^ε-16-(2,3-Difluoro-4-boronobenzoylamino)hexadecanoyl A14E B25H des B30 Human Insulin [Example 22]	1.5		eliminated faster
B29M-{4-[16-(3-Boronobenzenesulfonylamino)hexadecanoylsulfamoyl]butanoyl} desB30 Human Insulin [Example 14]	0.8		
B29N^ε-16-(2,3-Difluoro-4-boronobenzoylamino)hexadecanoyl-γ-L-glutamyl desB30 Human Insulin [Example 4]	1.8		
B29N^ε-16-(2,6-Difluoro-4-boronobenzoylamino)hexadecanonyl desB30 Human Insulin [Example 9]	2.5		
